Test results as given in patent publication US9989536B2, “Specific and high affinity binding proteins comprising modified SH3 domains of FYN kinase” (EIDGENOESSISCHE TECHNISCHE HOCHSCHULE ZURICH, priority 2006, dated 2018).
Blank lines part the entries; values can stand above or below the substance they belong to.

What was measured:
[1] = system: F9 murine teratocarcinoma; test: Quantitative biodistribution of 125I-labeled protein in tumor-bearing mice; assay type: in vivo; conditions: i.v., 24 h
IL-17A [2] = molecular target: T1, IL-17A (Homo sapiens, UniProt Q16552); test: IL-17A inhibition cell assay (IL-6 production in NHDF, 50 ng/ml IL-17A); assay type: cell-based; conditions: NHDF cells in presence of IL-17A
T1 construct: purchased R&D Systems

IL-17A [3] = molecular target: T1, IL-17A; test: Acute inflammation model: human IL-17A induced KC production in mice; assay type: in vivo, mouse; conditions: C57BL/6 mice, co-injected s.c. with 3 μg human IL-17A (17 μg 2C1, 16 μg wt), 2 hours
Experimental: Human IL-17A is able to bind and stimulate the mouse IL-17 receptor, leading to an elevation and subsequent secretion of mouse KC (CXCL1) chemokine (Allan B. et al. (2007) WO2007/070750 of Eli Lilly, US). The observed KC levels 2 hours after s.c. IL-17A injection (3 μg) were between […] in the serum, compared to around […] KC basal levels.
The blood samples were centrifuged for 10 min at 9500×g and the serum was stored at −20° until ELISA analysis was performed. KC levels in serum were determined using the commercially available Quantikine mouse CLCL1/KC kit (R&D Systems).
After 20-60 minutes, 3 μg/mouse of human IL-17A (R&D Systems) was injected s.c. and 2 hours after IL-17A injection, blood samples were taken from the vena saphena with the capillary Microvette CB 300 (Sarstedt). The blood samples were centrifuged for 10 min at 9500×g and the serum was stored at −20° until ELISA analysis was performed. KC levels in serum were determined using the commercially available Quantikine mouse CLCL1/KC kit (R&D Systems).

[4] = system: Normal Human Dermal Fibroblasts (NHDF); test: XTT viability of NHDF cells; assay type: cell-based; conditions: polypeptides at 750 nM, IL-17 receptor 10 nM, 24 hours
Experimental: IL-17A induces the production of IL-6 in fibroblasts in a dose-dependent manner (Yao et al. (1995) Immunity, 3, p. 811-821). […] Cell culture supernatants were taken after 24 h of stimulation and assayed for IL-6 with ELISA. […] Only viable and metabolic active cells are capable of reducing the tetrazolium salt XTT to orange-colored compounds of formazan (Scudiero, et al. (1988), Cancer Res. 48, p. 4827-4833).
400 μl of a cell suspension containing about 1×10^4 Normal Human Dermal Fibroblasts (PromoCell, NHDF-c, C12300) were distributed per well (24 well plate, Nunc or TPP) and cultured for 24 hours at 37° C. (medium: Fibroblast Growth Medium C-23010, PromoCell). […] After 24 hours incubation at 37° C. the supernatant was aspirated and the IL-6 concentration was determined by ELISA according to the manufacturer's instructions (IL-6 ELISA kit, R&D Systems). Immediately after the aspiration of the supernatant the XTT-containing medium was added (Cell Proliferation Kit II, Roche) and cell viability was determined according to the manufacturer's instructions.

[5] = Humira Drug Approval Package; cited from earlier work

T1 sequence (Q16552 20-155 limits assumed): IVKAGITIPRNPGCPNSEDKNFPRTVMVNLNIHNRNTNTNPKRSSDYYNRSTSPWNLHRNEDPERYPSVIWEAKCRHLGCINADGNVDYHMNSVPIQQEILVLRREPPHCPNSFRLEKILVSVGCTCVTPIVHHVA

inhibition of IL-6 production (IL-17A [2]): no inhibition of IL-6 production
Substance: Fyn SH3 wt: wild type SH3 domain of Fyn kinase, SEQ ID NO: 1 (SEQ ID NO: 339 in Example 5)
accumulation in the tumor [1]: no enrichment
KC levels in mouse serum (IL-17A [3]): as high as in the group receiving IL-17A only

Substance: IL-17A receptor-Fc chimera: commercially available human IL-17A receptor Fc chimera (R&D Systems)
cell viability (XTT assay) [4]: all cells were viable

Substance: adalimumab
half-life of other human antibodies in mice [5]: 102 to 193 h
